Positions count from the first letter of the chain named. Numbers in names are those of the source.
B1: PRA, C-terminal domain of MYH9 (recombinant, wild type) K1673A (protein)
chain: MRELEDTRASREEILAQAKENEAKLKSMEAEMIQLQEELAAAERAKRQAQQERDELADEIANSSGKGALALEEKRRLEARIAQLEEELEEEQGNTELVNDRLKKANLQIDQINTDLNLERSHAQKNENARQQLERQNKELKVKLQEMEGTVKSKYKASIAALEAKIAQLEEQLDNETKERQAACKQVRRAEKKLKDVLLQVDDERRNAEQYKDQADKASTRLKQLKRQLEEAEEEAQRANASRRKLQRELEDATETADAMNREVSSLKNKLRRGDLPFVVPRRMGRKGAGDCSDEEVDGKADGAEAKAAE
B2: PRA, C-terminal domain of MYH9 (recombinant, wild type) E1670A; K1673A; E1679A; I1683A (protein)
chain: B1 chain with E20A, E29A, I33A
B3: PRA, C-terminal domain of MYH9 (recombinant, wild type) I1683A (protein)
chain: B1 chain with A23K, I33A
B4: PRA, C-terminal domain of MYH9 (recombinant, wild type) E1670A (protein)
chain: B1 chain with E20A, A23K
B5: PRA, C-terminal domain of MYH9 (recombinant, wild type) E1679A (protein)
chain: B1 chain with A23K, E29A

The binders below were run against Mab2-5G2, monoclonal anti-idiotypic antibody recognizing an antibody that specifically interacts with PRRSV glycoprotein 5 (GP5) (assay: ELISA). Conditions: chain shown with the change; Mab2-5G2 as plate-coating protein; anti-PRA rabbit serum for detection; parent: est. 1.6; read off a plot.

Binder | response [OD450]
B1 | 0.4
B2 | 0.41
B3 | 0.61
B4 | 0.46
B5 | 0.36

Source: PMC7019770
